Reference: patent publication US20140072613A1, “Compositions and Methods for Treating Cutaneous Scarring” (priority 2012, published 2014)

Columns and labels:
Experiment in all cases: biochemical
Assay type in all cases: biochemical
[1] = target: 266 human kinases (Homo sapiens, UniProt O15530); settings: PDK1(h); 100 μM
Outline: (§1)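 Kinase phosphorylates cationic substrate with radiolabelled ATP phosphate; substrate retained on anionic filter membrane; scintillation count; % of 100% activity control.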

[2] = target: 266 human kinases (Homo sapiens, UniProt O75116); settings: ROCK-II(h); 100 μM
Outline: as §1

[3] = target: 266 human kinases (Homo sapiens, UniProt P08581, D1228N); settings: Met(D1246N)(h); 100 μM
Outline: as §1

[4] = target: 266 human kinases (Homo sapiens, UniProt P24723); settings: PKGη(h); 100 μM
Outline: as §1

[5] = target: 266 human kinases (Homo sapiens, UniProt P42684); settings: Arg(h); 100 μM
Outline: as §1

[6] = target: 266 human kinases (Homo sapiens, UniProt P49841); settings: 6SK3β(h); 100 μM
266 human kinases (Homo sapiens, UniProt P49841), sequence (P49841 whole entry): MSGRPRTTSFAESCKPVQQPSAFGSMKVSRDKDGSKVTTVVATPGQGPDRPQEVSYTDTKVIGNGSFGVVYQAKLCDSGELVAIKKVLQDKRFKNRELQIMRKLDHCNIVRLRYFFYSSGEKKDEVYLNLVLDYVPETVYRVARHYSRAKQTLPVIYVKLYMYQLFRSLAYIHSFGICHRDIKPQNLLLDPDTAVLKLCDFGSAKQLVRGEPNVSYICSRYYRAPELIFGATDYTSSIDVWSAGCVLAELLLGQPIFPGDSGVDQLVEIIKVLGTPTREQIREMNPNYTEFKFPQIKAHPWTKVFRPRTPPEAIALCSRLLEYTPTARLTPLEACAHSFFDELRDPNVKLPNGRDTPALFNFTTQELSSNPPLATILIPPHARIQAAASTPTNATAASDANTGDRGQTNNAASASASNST
Outline: as §1

[7] = target: 266 human kinases (Homo sapiens, UniProt P51617); settings: IRAK1(h); 100 μM
266 human kinases (Homo sapiens, UniProt P51617), sequence (P51617 whole entry): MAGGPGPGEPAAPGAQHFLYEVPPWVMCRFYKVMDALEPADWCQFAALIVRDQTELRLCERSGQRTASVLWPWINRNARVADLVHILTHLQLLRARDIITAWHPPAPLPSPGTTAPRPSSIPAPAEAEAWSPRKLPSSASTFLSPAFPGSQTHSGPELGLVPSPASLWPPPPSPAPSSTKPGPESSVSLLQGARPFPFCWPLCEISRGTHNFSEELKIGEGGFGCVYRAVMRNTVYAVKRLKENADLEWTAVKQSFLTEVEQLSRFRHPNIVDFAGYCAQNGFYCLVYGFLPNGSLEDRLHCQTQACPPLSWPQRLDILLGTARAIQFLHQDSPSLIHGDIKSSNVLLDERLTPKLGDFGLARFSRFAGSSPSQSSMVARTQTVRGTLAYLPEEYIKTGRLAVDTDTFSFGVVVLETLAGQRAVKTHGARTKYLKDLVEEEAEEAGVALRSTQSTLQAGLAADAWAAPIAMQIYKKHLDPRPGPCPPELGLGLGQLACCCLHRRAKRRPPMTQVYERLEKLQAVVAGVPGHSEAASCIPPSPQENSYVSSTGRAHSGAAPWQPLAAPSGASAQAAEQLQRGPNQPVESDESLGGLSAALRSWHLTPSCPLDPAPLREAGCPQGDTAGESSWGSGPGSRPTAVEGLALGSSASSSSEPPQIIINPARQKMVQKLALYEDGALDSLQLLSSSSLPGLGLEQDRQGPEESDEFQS
Outline: as §1

[8] = target: 266 human kinases (Homo sapiens, UniProt P52564); settings: MKK6(h); 100 μM
266 human kinases (Homo sapiens, UniProt P52564), sequence (P52564 whole entry): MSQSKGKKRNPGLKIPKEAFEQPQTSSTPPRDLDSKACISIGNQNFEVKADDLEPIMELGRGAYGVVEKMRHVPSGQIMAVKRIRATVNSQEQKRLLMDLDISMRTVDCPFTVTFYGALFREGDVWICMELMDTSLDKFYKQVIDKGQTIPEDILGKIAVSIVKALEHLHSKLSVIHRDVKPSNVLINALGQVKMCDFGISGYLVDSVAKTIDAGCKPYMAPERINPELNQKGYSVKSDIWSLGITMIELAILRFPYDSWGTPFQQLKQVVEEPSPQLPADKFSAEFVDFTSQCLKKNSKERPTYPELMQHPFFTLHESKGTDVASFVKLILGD
Outline: as §1

[9] = target: 266 human kinases (Homo sapiens, UniProt P54764); settings: EphA4(h); 100 μM
Outline: as §1

[10] = target: 266 human kinases (Homo sapiens, UniProt Q13882); settings: BRK(h); 100 μM
266 human kinases (Homo sapiens, UniProt Q13882), sequence (Q13882 whole entry): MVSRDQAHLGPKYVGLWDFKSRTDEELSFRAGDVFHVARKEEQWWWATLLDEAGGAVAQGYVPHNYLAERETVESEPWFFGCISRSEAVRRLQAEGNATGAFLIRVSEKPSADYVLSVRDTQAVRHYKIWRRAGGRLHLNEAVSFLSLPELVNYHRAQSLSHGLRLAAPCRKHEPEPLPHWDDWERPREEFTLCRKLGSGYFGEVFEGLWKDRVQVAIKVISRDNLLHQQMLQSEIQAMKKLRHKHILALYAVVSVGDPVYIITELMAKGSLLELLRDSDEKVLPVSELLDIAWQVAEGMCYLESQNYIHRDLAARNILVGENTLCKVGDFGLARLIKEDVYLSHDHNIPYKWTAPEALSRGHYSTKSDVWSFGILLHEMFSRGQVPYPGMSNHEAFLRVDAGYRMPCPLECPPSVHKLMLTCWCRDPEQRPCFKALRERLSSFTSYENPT
Outline: as §1

[11] = target: 266 human kinases (Homo sapiens, UniProt Q15303); settings: ErbB4(h); 100 μM
Outline: as §1

[12] = target: 266 human kinases (Homo sapiens, UniProt Q15375); settings: EphA7(h); 100 μM
Outline: as §1

[13] = target: 266 human kinases (Homo sapiens, UniProt Q86UE8); settings: TLK2(h); 100 μM
266 human kinases (Homo sapiens, UniProt Q86UE8), sequence (Q86UE8 whole entry): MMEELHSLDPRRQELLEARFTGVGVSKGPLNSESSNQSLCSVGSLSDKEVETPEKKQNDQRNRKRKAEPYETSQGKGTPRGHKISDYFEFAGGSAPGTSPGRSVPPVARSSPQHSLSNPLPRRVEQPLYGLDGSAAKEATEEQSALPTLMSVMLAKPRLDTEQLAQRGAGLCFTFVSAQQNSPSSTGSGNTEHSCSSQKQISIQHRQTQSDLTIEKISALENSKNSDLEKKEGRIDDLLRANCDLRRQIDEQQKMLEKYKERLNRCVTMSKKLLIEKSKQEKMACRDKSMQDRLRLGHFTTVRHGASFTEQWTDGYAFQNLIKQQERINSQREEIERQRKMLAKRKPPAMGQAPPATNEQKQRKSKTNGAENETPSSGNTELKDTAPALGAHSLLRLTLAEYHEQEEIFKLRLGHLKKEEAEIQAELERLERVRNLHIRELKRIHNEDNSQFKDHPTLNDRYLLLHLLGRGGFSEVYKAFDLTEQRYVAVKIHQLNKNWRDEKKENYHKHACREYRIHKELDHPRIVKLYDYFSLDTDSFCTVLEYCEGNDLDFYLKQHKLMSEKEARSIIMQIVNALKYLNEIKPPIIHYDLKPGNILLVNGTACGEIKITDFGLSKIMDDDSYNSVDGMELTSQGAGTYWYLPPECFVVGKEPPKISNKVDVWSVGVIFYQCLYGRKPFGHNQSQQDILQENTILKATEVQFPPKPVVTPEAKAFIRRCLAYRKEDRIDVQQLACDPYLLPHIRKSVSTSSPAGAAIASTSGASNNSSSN
Outline: as §1

[14] = target: 266 human kinases (Homo sapiens, UniProt Q96SB4); settings: SRPK1(h); 100 μM
Outline: as §1

[15] = target: 266 human kinases (Homo sapiens, UniProt Q9BYP7); settings: WNK3(h); 100 μM
266 human kinases (Homo sapiens, UniProt Q9BYP7), sequence (Q9BYP7 whole entry): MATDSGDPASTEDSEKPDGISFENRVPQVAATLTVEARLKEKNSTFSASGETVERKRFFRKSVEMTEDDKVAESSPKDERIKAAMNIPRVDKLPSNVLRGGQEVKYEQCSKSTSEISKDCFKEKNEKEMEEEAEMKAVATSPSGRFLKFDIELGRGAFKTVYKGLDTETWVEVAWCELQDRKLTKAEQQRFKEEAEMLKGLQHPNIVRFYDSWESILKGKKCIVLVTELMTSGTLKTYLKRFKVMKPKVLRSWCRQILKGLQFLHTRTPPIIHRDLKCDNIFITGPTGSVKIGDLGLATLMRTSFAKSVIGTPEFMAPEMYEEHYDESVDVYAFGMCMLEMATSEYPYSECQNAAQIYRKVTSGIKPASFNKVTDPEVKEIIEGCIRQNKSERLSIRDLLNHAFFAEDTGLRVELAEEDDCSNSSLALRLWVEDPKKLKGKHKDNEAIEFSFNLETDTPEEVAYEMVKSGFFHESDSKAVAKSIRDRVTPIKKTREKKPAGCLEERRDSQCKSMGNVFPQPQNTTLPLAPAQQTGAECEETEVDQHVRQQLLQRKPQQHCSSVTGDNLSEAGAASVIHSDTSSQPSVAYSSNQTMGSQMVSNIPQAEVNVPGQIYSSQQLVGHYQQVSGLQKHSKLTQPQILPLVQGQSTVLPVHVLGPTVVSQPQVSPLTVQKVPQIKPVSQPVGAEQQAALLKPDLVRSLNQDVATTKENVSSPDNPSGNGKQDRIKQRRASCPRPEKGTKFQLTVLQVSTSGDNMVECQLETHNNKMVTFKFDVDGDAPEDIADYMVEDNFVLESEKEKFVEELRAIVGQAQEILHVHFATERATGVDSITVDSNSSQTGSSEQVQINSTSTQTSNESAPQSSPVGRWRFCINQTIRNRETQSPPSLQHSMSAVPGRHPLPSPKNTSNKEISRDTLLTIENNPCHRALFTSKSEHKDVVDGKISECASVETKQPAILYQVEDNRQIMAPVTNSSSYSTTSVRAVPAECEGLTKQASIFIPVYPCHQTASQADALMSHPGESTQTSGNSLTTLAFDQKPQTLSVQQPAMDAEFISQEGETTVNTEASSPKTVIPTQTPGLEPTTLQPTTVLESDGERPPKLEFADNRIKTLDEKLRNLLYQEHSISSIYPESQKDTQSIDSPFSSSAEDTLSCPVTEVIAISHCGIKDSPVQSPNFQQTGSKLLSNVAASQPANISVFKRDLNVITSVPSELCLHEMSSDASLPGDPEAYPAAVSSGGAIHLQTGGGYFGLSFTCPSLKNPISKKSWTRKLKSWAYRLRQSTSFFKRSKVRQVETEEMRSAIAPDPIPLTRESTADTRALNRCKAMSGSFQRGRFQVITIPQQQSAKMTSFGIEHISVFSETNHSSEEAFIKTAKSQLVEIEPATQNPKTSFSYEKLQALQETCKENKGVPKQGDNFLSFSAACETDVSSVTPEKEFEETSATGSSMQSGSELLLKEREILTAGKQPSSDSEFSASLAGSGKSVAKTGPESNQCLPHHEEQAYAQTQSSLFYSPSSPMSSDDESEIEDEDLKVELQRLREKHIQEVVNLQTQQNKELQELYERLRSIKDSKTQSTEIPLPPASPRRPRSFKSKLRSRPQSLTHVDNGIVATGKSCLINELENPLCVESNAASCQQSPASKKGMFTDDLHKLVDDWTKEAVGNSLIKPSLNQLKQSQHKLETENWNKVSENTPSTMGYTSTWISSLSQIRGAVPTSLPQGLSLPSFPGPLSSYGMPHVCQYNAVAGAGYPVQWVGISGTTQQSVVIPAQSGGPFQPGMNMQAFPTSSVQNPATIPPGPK
Outline: as §1

[16] = target: T1, 266 human kinases (Homo sapiens, UniProt Q9BZL6); settings: PKD2(h); 100 μM
T1 sequence (Q9BZL6 1-878): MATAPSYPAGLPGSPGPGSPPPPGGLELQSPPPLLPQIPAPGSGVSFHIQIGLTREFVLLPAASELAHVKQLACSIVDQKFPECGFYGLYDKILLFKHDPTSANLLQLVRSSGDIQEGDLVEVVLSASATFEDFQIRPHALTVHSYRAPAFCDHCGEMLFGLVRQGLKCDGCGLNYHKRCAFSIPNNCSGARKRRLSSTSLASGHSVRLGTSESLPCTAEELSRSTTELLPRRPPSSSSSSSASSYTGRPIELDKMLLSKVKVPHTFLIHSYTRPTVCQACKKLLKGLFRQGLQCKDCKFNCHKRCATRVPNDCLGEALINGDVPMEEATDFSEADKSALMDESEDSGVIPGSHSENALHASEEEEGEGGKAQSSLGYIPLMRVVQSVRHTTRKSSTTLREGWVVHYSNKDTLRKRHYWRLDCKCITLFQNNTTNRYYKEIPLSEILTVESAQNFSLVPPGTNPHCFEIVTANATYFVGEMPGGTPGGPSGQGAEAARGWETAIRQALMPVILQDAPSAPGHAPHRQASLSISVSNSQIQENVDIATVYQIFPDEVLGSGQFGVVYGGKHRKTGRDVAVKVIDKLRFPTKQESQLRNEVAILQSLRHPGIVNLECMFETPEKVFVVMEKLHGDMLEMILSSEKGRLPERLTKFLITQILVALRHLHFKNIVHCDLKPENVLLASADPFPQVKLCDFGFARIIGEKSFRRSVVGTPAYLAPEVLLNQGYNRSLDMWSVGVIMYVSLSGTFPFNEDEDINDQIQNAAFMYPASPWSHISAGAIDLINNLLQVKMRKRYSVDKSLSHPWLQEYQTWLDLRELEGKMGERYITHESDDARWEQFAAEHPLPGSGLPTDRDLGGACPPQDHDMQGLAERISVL
Outline: as §1

[17] = target: 266 human kinases (Homo sapiens, UniProt Q9HC98); settings: NEK6(h); 100 μM
Outline: as §1

[18] = target: T2, 266 human kinases (Homo sapiens, UniProt Q9NWZ3); settings: IRAK4(h); 100 μM
T2 sequence (Q9NWZ3 1-460): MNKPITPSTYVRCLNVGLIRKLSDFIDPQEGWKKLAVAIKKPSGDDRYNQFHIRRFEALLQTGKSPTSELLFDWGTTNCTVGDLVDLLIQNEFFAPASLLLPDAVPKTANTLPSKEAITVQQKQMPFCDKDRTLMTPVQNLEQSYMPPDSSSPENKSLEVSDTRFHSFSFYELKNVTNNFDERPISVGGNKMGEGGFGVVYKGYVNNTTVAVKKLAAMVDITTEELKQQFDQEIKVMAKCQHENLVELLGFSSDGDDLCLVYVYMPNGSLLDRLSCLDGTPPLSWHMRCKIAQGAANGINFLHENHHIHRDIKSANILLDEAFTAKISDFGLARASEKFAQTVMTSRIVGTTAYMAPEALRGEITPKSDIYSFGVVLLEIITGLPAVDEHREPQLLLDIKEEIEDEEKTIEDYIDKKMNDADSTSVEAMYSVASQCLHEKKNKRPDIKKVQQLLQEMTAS
Outline: as §1

[19] = system: 266 human kinases; settings: for % activity: 100 μM; for off-target kinase inhibition: at 100 μM
Outline: as §1

266 human kinases (Homo sapiens, UniProt O15530), sequence (O15530 whole entry): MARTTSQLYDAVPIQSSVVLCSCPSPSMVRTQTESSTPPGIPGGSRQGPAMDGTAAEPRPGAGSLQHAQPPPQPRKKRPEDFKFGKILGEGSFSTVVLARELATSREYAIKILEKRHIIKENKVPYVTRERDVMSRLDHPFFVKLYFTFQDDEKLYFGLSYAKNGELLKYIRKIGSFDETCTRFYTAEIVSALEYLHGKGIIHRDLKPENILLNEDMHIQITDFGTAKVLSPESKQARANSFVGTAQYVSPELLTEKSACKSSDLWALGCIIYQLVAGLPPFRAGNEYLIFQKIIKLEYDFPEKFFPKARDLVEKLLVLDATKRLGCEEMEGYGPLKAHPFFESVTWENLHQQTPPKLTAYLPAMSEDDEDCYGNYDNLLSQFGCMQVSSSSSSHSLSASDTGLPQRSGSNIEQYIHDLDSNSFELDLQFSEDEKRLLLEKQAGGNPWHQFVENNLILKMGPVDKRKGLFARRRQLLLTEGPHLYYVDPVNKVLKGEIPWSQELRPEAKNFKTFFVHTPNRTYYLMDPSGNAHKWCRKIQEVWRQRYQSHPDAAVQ

Row | Sequence | % activity [1] [%] | % activity [2] [%] | % activity [3] [%] | % activity [4] [%] | % activity [5] [%] | % activity [6] [%] | % activity [7] [%] | % activity [8] [%] | % activity [9] [%] | % activity [10] [%] | % activity [11] [%] | % activity [12] [%] | % activity [13] [%] | % activity [14] [%] | % activity [15] [%] | % activity [16] [%] | % activity [17] [%] | % activity [18] [%] | % activity ([19]; PKCβII(h)) [%] | % activity ([19]; PKG1β(h)) [%] | further results
1 | YARAAARQARAKALNRQLGVA (mammal) [MMI-0200] | 143 | 85 | 149 | 101 | 82 | 132 | 101 | 98 | 127 | 127 | 82 | 220 | 129 | 93 | 97 | 78 | 98 | 110 | 100 | 57 | % activity ([19]; MAPK1(h)): 97%; off-target kinase inhibition [19]: very limited off-target kinase inhibition
2 | HRRIKAWLKKIKALARQLGVAA (mammal) [MMI-0500] | 178 | 2 | 90 | 45 | 22 | 238 | 5 | 18 | 48 | 41 | 2 | 189 | 133 | 80 | 9 | 10 | 49 | 3 | 3 | 24 | off-target kinase inhibition [19]: very limited off-target kinase inhibition
